Source: patent publication US20170247476A1 (Amgen, published 2017)
Where a chain is given by its changes, count along the chain named.

B1: aCD3-aHER2-Xbody (bispecific antibody)
chain 1: not shown
chain 2: EVQLVESGGGLVQPGGSLKLSCAASGFTFNSYAMNWVRQAPGKGLEWVARIRSKYNNYATYYADSVKGRFTISRDDSKNTAYLQMNNLKTEDTAVYYCVRHGNFGNSYVSWWAYWGQGTLVTVSSGGGGSGGGGSELVMTQTPSSLSASLGDRVTISCRASQDISNYLNWYQQKPDGTVKLLIYYTSRLHSGVPSRFSGSGSGTDYSLTISNLEQEDIATYFCQQGNTLPLTFGAGTKLEIKASTKGPSVFPLAPCSRSTSESTAALGCLVKDYFPEPVTVSWNSGALTSGVHTFPAVLQSSGLYSLSSVVTVPSSNFGTQTYTCNVDHKPSNTKVDKTVGGGGSAAAEPKSSDKTHTCPPCPAPEAAGGPSVFLFPPKPKDTLMISRTPEVTCVVVDVSHEDPEVKFNWYVDGVEVHNAKTKPREEQYNSTYRVVSVLTVLHQDWLNGKEYKCKVSNKALPAPIEKTISKAKGQPREPQVYTLPPSREEMTKNQVSLTCLVKGFYPSDIAVEWESNGQPENNYDTTPPVLDSDGSFFLYSDLTVDKSRWQQGNVFSCSVMHEALHNHYTQKSLSLSPGK
B2: CD3ε(1-27)-MMP-2csV2-aCD3-aHER2-Xbody (bispecific antibody)
chain 1: not shown
chain 2: QDGNEEMGGITQTPYKVSISGTTVILTGGGGSGGGGSGGGGSGGPLGMLSQSEVQLVESGGGLVQPGGSLKLSCAASGFTFNSYAMNWVRQAPGKGLEWVARIRSKYNNYATYYADSVKGRFTISRDDSKNTAYLQMNNLKTEDTAVYYCVRHGNFGNSYVSWWAYWGQGTLVTVSSGGGGSGGGGSELVMTQTPSSLSASLGDRVTISCRASQDISNYLNWYQQKPDGTVKLLIYYTSRLHSGVPSRFSGSGSGTDYSLTISNLEQEDIATYFCQQGNTLPLTFGAGTKLEIKASTKGPSVFPLAPCSRSTSESTAALGCLVKDYFPEPVTVSWNSGALTSGVHTFPAVLQSSGLYSLSSVVTVPSSNFGTQTYTCNVDHKPSNTKVDKTVGGGGSAAAEPKSSDKTHTCPPCPAPEAAGGPSVFLFPPKPKDTLMISRTPEVTCVVVDVSHEDPEVKFNWYVDGVEVHNAKTKPREEQYNSTYRVVSVLTVLHQDWLNGKEYKCKVSNKALPAPIEKTISKAKGQPREPQVYTLPPSREEMTKNQVSLTCLVKGFYPSDIAVEWESNGQPENNYDTTPPVLDSDGSFFLYSDLTVDKSRWQQGNVFSCSVMHEALHNHYTQKSLSLSPGK
B3: CD3ε(1-27)-MMP-2csV2-aCD3-aHER2-Xbody, digested with MMP-2 (bispecific antibody)
chain 1: not shown
chain 2: MLSQSEVQLVESGGGLVQPGGSLKLSCAASGFTFNSYAMNWVRQAPGKGLEWVARIRSKYNNYATYYADSVKGRFTISRDDSKNTAYLQMNNLKTEDTAVYYCVRHGNFGNSYVSWWAYWGQGTLVTVSSGGGGSGGGGSELVMTQTPSSLSASLGDRVTISCRASQDISNYLNWYQQKPDGTVKLLIYYTSRLHSGVPSRFSGSGSGTDYSLTISNLEQEDIATYFCQQGNTLPLTFGAGTKLEIKASTKGPSVFPLAPCSRSTSESTAALGCLVKDYFPEPVTVSWNSGALTSGVHTFPAVLQSSGLYSLSSVVTVPSSNFGTQTYTCNVDHKPSNTKVDKTVGGGGSAAAEPKSSDKTHTCPPCPAPEAAGGPSVFLFPPKPKDTLMISRTPEVTCVVVDVSHEDPEVKFNWYVDGVEVHNAKTKPREEQYNSTYRVVSVLTVLHQDWLNGKEYKCKVSNKALPAPIEKTISKAKGQPREPQVYTLPPSREEMTKNQVSLTCLVKGFYPSDIAVEWESNGQPENNYDTTPPVLDSDGSFFLYSDLTVDKSRWQQGNVFSCSVMHEALHNHYTQKSLSLSPGK
B4: CD3ε(1-27)-MMP-2csV3-aCD3-aHER2-Xbody (bispecific antibody)
chain 1: not shown
chain 2: QDGNEEMGGITQTPYKVSISGTTVILTGGGGSGGGGSGGGGSPLGLAGEVQLVESGGGLVQPGGSLKLSCAASGFTFNSYAMNWVRQAPGKGLEWVARIRSKYNNYATYYADSVKGRFTISRDDSKNTAYLQMNNLKTEDTAVYYCVRHGNFGNSYVSWWAYWGQGTLVTVSSGGGGSGGGGSELVMTQTPSSLSASLGDRVTISCRASQDISNYLNWYQQKPDGTVKLLIYYTSRLHSGVPSRFSGSGSGTDYSLTISNLEQEDIATYFCQQGNTLPLTFGAGTKLEIKASTKGPSVFPLAPCSRSTSESTAALGCLVKDYFPEPVTVSWNSGALTSGVHTFPAVLQSSGLYSLSSVVTVPSSNFGTQTYTCNVDHKPSNTKVDKTVGGGGSAAAEPKSSDKTHTCPPCPAPEAAGGPSVFLFPPKPKDTLMISRTPEVTCVVVDVSHEDPEVKFNWYVDGVEVHNAKTKPREEQYNSTYRVVSVLTVLHQDWLNGKEYKCKVSNKALPAPIEKTISKAKGQPREPQVYTLPPSREEMTKNQVSLTCLVKGFYPSDIAVEWESNGQPENNYDTTPPVLDSDGSFFLYSDLTVDKSRWQQGNVFSCSVMHEALHNHYTQKSLSLSPGK
B5: CD3ε(1-27)-MMP-2csV3-aCD3-aHER2-Xbody, digested with MMP-2 (bispecific antibody)
chain 1: not shown
chain 2: LAGEVQLVESGGGLVQPGGSLKLSCAASGFTFNSYAMNWVRQAPGKGLEWVARIRSKYNNYATYYADSVKGRFTISRDDSKNTAYLQMNNLKTEDTAVYYCVRHGNFGNSYVSWWAYWGQGTLVTVSSGGGGSGGGGSELVMTQTPSSLSASLGDRVTISCRASQDISNYLNWYQQKPDGTVKLLIYYTSRLHSGVPSRFSGSGSGTDYSLTISNLEQEDIATYFCQQGNTLPLTFGAGTKLEIKASTKGPSVFPLAPCSRSTSESTAALGCLVKDYFPEPVTVSWNSGALTSGVHTFPAVLQSSGLYSLSSVVTVPSSNFGTQTYTCNVDHKPSNTKVDKTVGGGGSAAAEPKSSDKTHTCPPCPAPEAAGGPSVFLFPPKPKDTLMISRTPEVTCVVVDVSHEDPEVKFNWYVDGVEVHNAKTKPREEQYNSTYRVVSVLTVLHQDWLNGKEYKCKVSNKALPAPIEKTISKAKGQPREPQVYTLPPSREEMTKNQVSLTCLVKGFYPSDIAVEWESNGQPENNYDTTPPVLDSDGSFFLYSDLTVDKSRWQQGNVFSCSVMHEALHNHYTQKSLSLSPGK
B6: aCD3-aHER2-mxb (bispecific antibody)
chain 1: EVQLLEQSGAELVRPGALVKLSCKASGFKIKDYFVNWVKQRPEQGLEWIGWIDPENDNSLYGPNFQDKASITADTSSNTGYLQLSGLTSEDTAVYYCALYYGSRGDAMDYWGQGTTVTVSSGGGGSGGGGSGGGGSELVMTQTPSSLSASLGDRVTISCRASQDISNYLNWYQQKPDGTVKLLIYYTSRLHSGVPSRFSGSGSGTDYSLTISNLEQEDIATYFCQQGNTLPLTFGAGTKLEIKAAAEPKSSDKTHTCPPCPAPEAAGGPSVFLFPPKPKDTLMISRTPEVTCVVVDVSHEDPEVKFNWYVDGVEVHNAKTKPREEQYNSTYRVVSVLTVLHQDWLNGKEYKCKVSNKALPAPIEKTISKAKGQPREPQVYTLPPSRKEMTKNQVSLTCLVKGFYPSDIAVEWESNGQPENNYKTTPPVLKSDGSFFLYSKLTVDKSRWQQGNVFSCSVMHEALHNHYTQKSLSLSPGKAAAHHHHHH
chain 2: not shown
B7: CD3ε(1-27)-aCD3-aHER2-Xbody (bispecific antibody)
chain 1: not shown
chain 2: QDGNEEMGGITQTPYKVSISGTTVILTGGGGSGGGGSGGGGSEVQLVESGGGLVQPGGSLKLSCAASGFTFNSYAMNWVRQAPGKGLEWVARIRSKYNNYATYYADSVKGRFTISRDDSKNTAYLQMNNLKTEDTAVYYCVRHGNFGNSYVSWWAYWGQGTLVTVSSGGGGSGGGGSELVMTQTPSSLSASLGDRVTISCRASQDISNYLNWYQQKPDGTVKLLIYYTSRLHSGVPSRFSGSGSGTDYSLTISNLEQEDIATYFCQQGNTLPLTFGAGTKLEIKASTKGPSVFPLAPCSRSTSESTAALGCLVKDYFPEPVTVSWNSGALTSGVHTFPAVLQSSGLYSLSSVVTVPSSNFGTQTYTCNVDHKPSNTKVDKTVGGGGSAAAEPKSSDKTHTCPPCPAPEAAGGPSVFLFPPKPKDTLMISRTPEVTCVVVDVSHEDPEVKFNWYVDGVEVHNAKTKPREEQYNSTYRVVSVLTVLHQDWLNGKEYKCKVSNKALPAPIEKTISKAKGQPREPQVYTLPPSREEMTKNQVSLTCLVKGFYPSDIAVEWESNGQPENNYDTTPPVLDSDGSFFLYSDLTVDKSRWQQGNVFSCSVMHEALHNHYTQKSLSLSPGK
B8: CD3ε(1-27)-FURINcsV1-aCD3-aHER2-Xbody (bispecific antibody)
chain 1: not shown
chain 2: QDGNEEMGGITQTPYKVSISGTTVILTGGGGSGGGGSGGGGSRRRRREVQLVESGGGLVQPGGSLKLSCAASGFTFNSYAMNWVRQAPGKGLEWVARIRSKYNNYATYYADSVKGRFTISRDDSKNTAYLQMNNLKTEDTAVYYCVRHGNFGNSYVSWWAYWGQGTLVTVSSGGGGSGGGGSELVMTQTPSSLSASLGDRVTISCRASQDISNYLNWYQQKPDGTVKLLIYYTSRLHSGVPSRFSGSGSGTDYSLTISNLEQEDIATYFCQQGNTLPLTFGAGTKLEIKASTKGPSVFPLAPCSRSTSESTAALGCLVKDYFPEPVTVSWNSGALTSGVHTFPAVLQSSGLYSLSSVVTVPSSNFGTQTYTCNVDHKPSNTKVDKTVGGGGSAAAEPKSSDKTHTCPPCPAPEAAGGPSVFLFPPKPKDTLMISRTPEVTCVVVDVSHEDPEVKFNWYVDGVEVHNAKTKPREEQYNSTYRVVSVLTVLHQDWLNGKEYKCKVSNKALPAPIEKTISKAKGQPREPQVYTLPPSREEMTKNQVSLTCLVKGFYPSDIAVEWESNGQPENNYDTTPPVLDSDGSFFLYSDLTVDKSRWQQGNVFSCSVMHEALHNHYTQKSLSLSPGK
B9: CD3ε(1-27)-FURINcsV2-aCD3-aHER2-Xbody (bispecific antibody)
chain 1: not shown
chain 2: B2 chain 2 with G44Q, P45S, L46S, G47R, M48H, L49R, S50R, Q51A, S52L

The binders below were run against HER2 (human, UniProt P04626 23-1255) (assay: cell-based or functional assay).

First: B1
Second: B2
The “EC50 Cytolysis (ng/mL), -MMP2; TDCC of SKOV-3 cells with pan T cells” value (“EC50 Cytolysis (ng/mL), -MMP2; TDCC” for short) of the first is 20-fold lower: 0.128 ng/mL for the first, 2.62 ng/mL for the second.

Compared with B4, B6 is 30-fold lower in “EC50 Cytolysis (ng/mL), -MMP2; TDCC” value: 5.49 ng/mL for the first, 0.184 ng/mL for the second.

First: B7
Second: B8
The “EC50 Cytolysis (ng/mL), -MMP2; TDCC” value of the first is 22-fold higher: 6.12 ng/mL for the first, 0.276 ng/mL for the second.

B9 was tested, and the “EC50 Cytolysis (ng/mL), -MMP2; TDCC” value was 0.112 ng/mL.

B3 and B5 are within 1.5-fold of each other in “EC50 Cytolysis (ng/mL), +MMP2; TDCC of SKOV-3 cells with pan T cells” value (“EC50 Cytolysis (ng/mL), +MMP2; TDCC” below): 0.22 ng/mL for the first, 0.205 ng/mL for the second.

Going from B7 to B8, the “EC50 Cytolysis (ng/mL), +MMP2; TDCC” value falls from 6.73 ng/mL to 0.332 ng/mL (20-fold).

With B9 the “EC50 Cytolysis (ng/mL), +MMP2; TDCC” value was 0.256 ng/mL.
